The results in this text go back to patent US20260184785A1 (CYTOCARES SHANGHAI, published 2026).

This assay has as its target T1, trispecific antibody LMOAME.
T1 construct: Trispecific single-chain tandem scFv, monomer of 83.8 kDa without Fc; also called CD19×CD3×CD28 antibody; LMOAME DP
The assay is described as follows: ELISA, antigen-Fc coated on the plate, detection with HRP-protein L. A general note: In an ELISA, binding on a coated surface is turned into a signal by an enzyme label.

Method: Recombinant human CD19 antigen (CD19 (C-Fc), Novoprotein, Cat #: C572), and CD28 antigen (CD28 (C-Fc), Novoprotein, Cat #: C81) were diluted to 2 μg/mL with a protein coating solution, and plates were coated with the dilutions of 100 μL per well overnight at 2-8° C. The plates were washed the next day and blocked with a blocking solution of 1% Casein+3% BSA (PBS+2% BSA (V/W)).
The diluted antibodies were added to the 96-well flat bottom plates coated with antigens respectively and incubated for 1 h at 37° C.

B1: Recombinant human CD19 antigen (CD19 (C-Fc), Novoprotein, Cat #: C572) (Fc fusion, UniProt P15391 20-291, looked up)
chain: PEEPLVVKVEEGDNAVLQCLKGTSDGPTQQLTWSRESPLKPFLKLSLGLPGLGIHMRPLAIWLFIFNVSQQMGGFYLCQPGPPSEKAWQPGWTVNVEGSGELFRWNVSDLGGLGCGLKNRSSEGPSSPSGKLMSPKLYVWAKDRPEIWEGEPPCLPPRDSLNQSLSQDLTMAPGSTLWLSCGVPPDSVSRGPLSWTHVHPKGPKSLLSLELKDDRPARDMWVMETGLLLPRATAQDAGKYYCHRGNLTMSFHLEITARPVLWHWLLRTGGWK
notes: Bought C-terminal Fc fusion; also called rhCD19; hCD19 antigen; not shown: C-terminal Fc tag of the bought protein
Take B1: the binding result is on record as “binds”.
